Measured values taken from paper PMC7437355 (2020).

How the values were obtained:
[1] = target: KRAS4b(1–169), wild type, GMPPNP-bound (UniProt P01116-2 1-169); experiment: ITC; GMPPNP
[2] = target: T1, SPRED1(EVH1), SPRED1(13–125), wild type (ITC) (human, UniProt Q7Z699 13-125); experiment: ITC
T1 chain: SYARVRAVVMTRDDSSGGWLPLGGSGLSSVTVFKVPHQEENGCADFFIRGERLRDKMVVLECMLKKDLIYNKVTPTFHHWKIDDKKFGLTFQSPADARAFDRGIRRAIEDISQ

B1: NF1 isoform I (GRD containing additional 23 residues) (domain or fragment)
chain: DRFERLVELVTMMGDQGELPIAMALANVVPCSQWDELARVLVTLFDSRHLLYQLLWNMFSKEVELADSMQTLFRGNSLASKIMTFCFKVYGATYLQKLLDPLLRIVITSSDWQHVSFEVDPTRLEPSESLEENQRNLLQMTEKFFHAIISSSSEFPPQLRSVCHCLYQATCHSLLNKATVKEKKENKKSVVSQRFPQNSIGAVGSAMFLRFINPAIVSPYEAGILDKKPPPRIERGLKLMSKILQSIANHVLFTKEEHMRPFNDFVKSNFDAARRFFLDIASDCPTSDAVNHSLSFISDGNVLALHRLLWNNQEKIGQYLSSNRDHKAVGRRPFDKMATLLAYLGPPEH
Kd [1]: 4 µM
Kd [2]: 0.26 µM
